Target: T1, human Claudin18.2 on cells (human, UniProt P56856-2 1-261)
T1 construct: whole, on cells; also called CLDN18.2; hCLDN18.2
Test: flow cytometry on DANG-hCLDN18.2 cells, relative MFI (fold)
Description: The cells were centrifuged at 500 g for 5 min, and the cell medium was removed. […] The suspension was left to stand on ice for 30 min. The suspension was centrifuged at 500 g for 5 min, the supernatant was removed, and the cells were washed once with PBS. The goat anti-human Fc PE-labeled secondary antibody (SouthemBiotech, J2815-5H87B) was added at 100 µL/well. The resulting mixture was incubated on ice in the dark for 30 min. The mixture was centrifuged at 500 g for 5 min, the supernatant was removed, and the cells were washed once with PBS. The cells were resuspended in 50 μL of 1×PBS, and the suspension was loaded for FACS assay.

B1: IEX019-02 (HB37A6-SYNtecan E conjugate) (antibody, human IgG1, kappa, V domains shown)
VH: EVQLLDSGGGLVQPGGSLRLSCAASGFTFSSYVMSWVRQAPGKGLNWVSTISHSGGSTYYADSVKGRFTISRDNSKNTLYLQMNSLRAEDTAVYYCAIDAPYYDILTGYRYWGQGTLVTVSS
VL: not shown
modifications: GlcNAc(Fuc)-6-N3-GalNAc at Asn297 conjugated to linker-payload compound 1 (cleavable linker, 2 exatecan); average DAR 3.52
notes: also called SYN-HB37A6-Ex
B1: binds.

Reference: US20250073347A1 (FORTVITA BIOLOGICS SINGAPORE PTE, published 2025)
